“Also recorded” adds a separate entry of the source. Where two headings read alike, the source gives them in different places.
Legend:
Sgcg-null mice [1] = assay: Anti-HIS immunofluorescence localization after systemic injection, Sgcg-null versus wildtype; type: in vivo, mouse
Description: Immunofluorescence microscopy. Mice were systemically injected with recombinant annexin A6 with a C-terminal HIS tag (R&D). Muscle was harvested and flash frozen. Muscle sections (10 μm thick) from the center of frozen-embedded muscles were collected on the cryostat (chamber, −20° C.; sample, −15° C.; catalog number CM1950; Leica, Wetzlar, Germany) for immunostaining. Tissues were fixed with 4% paraformaldehyde for 10 minutes on ice. Block and permeabilization were with 0.1% Triton (catalog number X-100; Sigma-Aldrich), 10% fetal bovine serum, and PBS for 60 minutes. For laminin detection, anti-laminin antibody was used at a dilution of 1:100 and for HIS detection, anti-HIS antibody was used at 1:100 overnight at 4° C. Hoechst labelled nuclei. Sections were PBS rinsed, incubated with secondary antibody for 1 hour, PBS rinsed, and mounted. Imaging was performed using a Zeiss Axio Observer A1 microscope (Zeiss, Oberkochen, Germany).

[2] = test system: mdx/hLTBP4 dystrophic muscle; assay: Anti-HIS immunofluorescence localization after systemic injection, mdx/hLTBP4; type: in vivo, mouse; details: 6 hours post systemic injection, vs PBS
Description: Immunofluorescence microscopy. Sections (10 μm thick) from the center of frozen-embedded muscles were collected on the cryostat (chamber, −20° C.; sample, −15° C.; catalog number CM1950; Leica, Wetzlar, Germany) for immunostaining. Tissues were fixed with 4% paraformaldehyde for 10 minutes on ice. Block and permeabilization were with 0.1% Triton (catalog number X-100; Sigma-Aldrich), 10% fetal bovine serum, and PBS for 60 minutes. For dystrophin detection, anti-dystrophin (ab15277; Abcam, Cambridge, Mass.) was used at a dilution of 1:100 overnight at 4° C. Sections were PBS rinsed, incubated with secondary antibody goat anti rabbit (A11008, Invitrogen) for 1 hour, PBS rinsed, and mounted in vectashield with DAPI (H-1200, Vector Laboratories). Imaging was performed using a Zeiss Axio Observer A1 microscope (Zeiss, Oberkochen, Germany), using a 10× objective. ZEN software (Zeiss, Jena, Germany) was used for acquiring images. Fluorescence quantitation and muscle area were performed using FIJI (NIH). Surface plots were created in FIJI (NIH). Fluorescence volume was quantified using Imaris Software v9.1.2.
Immunofluorescence microscopy. Mice were systemically injected with recombinant annexin A6 with a C-terminal HIS tag (R&D). Muscle was harvested and flash frozen. […]

Sgcg-null mice [3] = details: 1 mg/kg, 5 injections over 48 hours, 60 minutes downhill running, vs BSA control
Description: Serum collection and CK analysis. Mice were sedated (3% isoflurane, 0.8 l/min O2) and blood was collected by means of retro-orbital puncture with heparinized capillary tubes (20-362-566; Fisher Scientific, Waltham, Mass.) into Microtainer™ Gold Top Serum Separator (365967 Becton Dickinson, Franklin Lakes, N.J.) and centrifuged at 8,000×g for 10 minutes. The plasma fractions were frozen and stored at −80° C. Serum creatine kinase (CK) was analyzed in duplicate for each mouse using the EnzyChrom Creatine Kinase Assay (ECPK-100; BioAssay Systems, Hayward, Calif.) following manufacturer's instructions as described (Demonbreun A R, Allen M V, Warner J L, Barefield D Y, Krishnan S, Swanson K E, et al. Enhanced Muscular Dystrophy from Loss of Dysferlin Is Accompanied by Impaired Annexin A6 Translocation after Sarcolemmal Disruption. Am J Pathol. 2016; 186(6):1610-22). Results were acquired with the Synergy HTX multi-mode plate reader (BioTek®, Winooski, Vt.).
Sgcg-null mice were sedated (3% isoflurane, 0.8 l/min O2) and pre-exercise blood was collected by means of left retro-orbital puncture as described above. While sedated, mice were then injected 1 mg/kg recombinant annexin A6 (5186-A6-050, R&D systems) or PBS+1 mg/kg BSA into the right retro-orbital cavity at 9 am and 5 μm for 5 consecutive injection over 48 hours. […] Serum creatine kinase (CK) was analyzed as described above. […]

[4] = test system: tibialis anterior muscles of wildtype mice; assay: Cardiotoxin injection and histology 7 days post injury; type: in vivo, mouse; details: 1 mg/kg retro-orbital 2 hours before cardiotoxin, vs BSA control
Description: Cardiotoxin injection and histology. […] Two hours post injection mice were sedated for a second time. While sedated the tibialis anterior muscles were injected along the midline with 10 μm cardiotoxin in 20 ul of PBS as described above. Seven days post injection, the muscle was isolated and frozen. Muscle sections were acquired every 100 μm from muscle tendon into the mid belly, fixed and stained with hematoxylin and eosin. Imaging was performed using a Zeiss Axio Observer A1 microscope (Zeiss, Oberkochen, Germany), using a 10× objective. ZEN software (Zeiss, Jena, Germany) was used for acquiring tiled images. Percent injury area was calculated as the average injured area (containing internal myonuclei) divided by total muscle area of 3 sections per muscle. One muscle from each group was excluded due to technical error in tissue processing. Damage area was measured using FIJI (NIH).

myofibers = assay: Bleb formation and intracellular Ca2+ fluorescence (GCaMP5G, Fluo-4) after laser injury with annexin overexpression; type: cell-based, mouse; details: for internal GCaMP5G Ca2+ fluorescence at the site of injury: vs GCaMP5G alone
Description: (§1) Electroporation, myofiber isolation, laser injury, cap and vesicle measurement. Flexor digitorum brevis (FDB) fibers were transfected with endo-free plasmid DNA by in vivo electroporation. Methods were described previously in (Demonbreun and McNally, 2015; Demonbreun et al., 2016b; DiFranco et al., 2009). Z-stack projections were acquired from consecutive acquisitions after the final time-lapse frame, approximately 4 minutes post damage, with a […] step size between slices. Z-stack renderings were constructed in FIJI. Measurement of the cap area and feret diameter were conducted from a single slice near the middle of the z-stack using FIJI imaging tools. Fibers expressing similar levels of tagged or GCaMP5G protein were compared. GCaMP5G Ca^2+ fluorescence was measured from the acquired timelapse images, using a standard rectangular ROI, placed inside the myofiber below the site of damage using FIJI. Fluorescence was expressed as F/F0. External vesicle number and GCaMP5G area were measured from endpoint z-stacks and max projection images using FIJI. Vesicles were considered external if they were found outside the sarcolemma assessed in brightfield and fluorescent channels. All measurements were acquired from myofibers isolated from at least n≥3 mice, n≥3 myofibers per mouse.
as §1, with “(Demonbreun A R, Quattrocelli M, Barefield D Y, Allen M V, Swanson K E,” for “(Demonbreun”, “McNally E M. An actin-dependent annexin complex mediates plasma membrane repair in muscle. The Journal of cell biology. 2016; 213(6):705-18; Demonbreun A R, and McNally E M. DNA Electroporation, Isolation and Imaging of Myofibers. Journal of visualized experiments: JoVE.” for “McNally,”, “106(106):e53551;” for “Demonbreun et al., 2016b;”, “M, Quinonez M, Capote J, and Vergara J. DNA transfection of mammalian skeletal muscles using in vivo electroporation. Journal of visualized experiments: JoVE. 2009; 32(32)).” for “et al., 2009).”
Calcium and pH indicator dye measurements. Wildtype FDBs were isolated and plated in Ringers on Matek glass-bottom dishes as described above. Twenty minutes prior to imaging, myofibers were loaded with Fluo-4 AM at 37° C. (F10489, ThermoFisher Scientific, Waltham, Mass.) or pHrodo AM (P35373, ThermoFisher Scientific, Waltham, Mass.) as described in the instruction manual. Fibers were rinsed once with Ringers then subsequently damaged and imaged on the Nikon A1R GaSP, as described above. Fluorescence intensity was measured using FIJI (NIH). phRodo change in fluorescence intensity was calculated as F/F0. Data was acquired from n=3 mice per experiment from multiple myofibers per mouse. […]

Molecule | anti-HIS immunofluorescence at the muscle membrane (Sgcg-null mice [1]; Sgcg-null (LGMD2C) muscle) | anti-HIS immunofluorescence at the muscle membrane (Sgcg-null mice [1]; Sgcg-null (LGMD2C) muscle, listed as rANXA6) | anti-HIS immunofluorescence at the muscle membrane (Sgcg-null mice [1]; uninjured wildtype muscle) | anti-HIS staining at the sarcolemma / plasma membrane ([2]; listed as rANXA6) | anti-HIS staining at the sarcolemma / plasma membrane ([2]; listed as recombinant annexin A6-HIS) | fold change in serum CK post/pre running (Sgcg-null mice [3]) | fold change in serum CK post/pre running (Sgcg-null mice [3]; listed as rANXA6) | percentage of injured muscle (internal myonuclei), histology [4] | percentage of injured muscle (internal myonuclei), histology ([4]; listed as rANXA6) | internal Fluo-4 Ca2+ fluorescence at the site of membrane injury (myofibers; annexin A6 overexpression vs control myofibers) | size of GCaMP5G-containing blebs (myofibers; annexin overexpression vs annexin A1, A2 or GCaMP5G alone) | number of extracellular (GCaMP5G-positive) blebs at the membrane lesion (myofibers; annexin overexpression vs annexin A1 overexpression or GCaMP5G alone) | internal GCaMP5G Ca2+ fluorescence at the site of injury (myofibers; first 20 seconds post injury) | internal GCaMP5G Ca2+ fluorescence at the site of injury (myofibers; over 240 seconds of imaging) | internal GCaMP5G Ca2+ fluorescence at the site of injury (myofibers; over 240 seconds of imaging, listed as A6)
recombinant annexin A6: recombinant human annexin A6 protein with C-terminal HIS tag (5186-A6-050, R&D systems); mouse protein from Northwestern core in one cohort (protein, UniProt P08133 2-673, looked up, C-terminal His tag, recombinant human annexin A6 protein with C-terminal HIS tag (5186-A6-050, R&D systems); mouse protein from Northwestern core in one cohort) Annexin A6: AKPAQGAKYRGSIHDFPGFDPNQDAEALYTAMKGFGSDKEAILDIITSRSNRQRQEVCQSYKSLYGKDLIADLKYELTGKFERLIVGLMRPPAYCDAKEIKDAISGIGTDEKCLIEILASRTNEQMHQLVAAYKDAYERDLEADIIGDTSGHFQKMLVVLLQGTREEDDVVSEDLVQQDVQDLYEAGELKWGTDEAQFIYILGNRSKQHLRLVFDEYLKTTGKPIEASIRGELSGDFEKLMLAVVKCIRSTPEYFAERLFKAMKGLGTRDNTLIRIMVSRSELDMLDIREIFRTKYEKSLYSMIKNDTSGEYKKTLLKLSGGDDDAAGQFFPEAAQVAYQMWELSAVARVELKGTVRPANDFNPDADAKALRKAMKGLGTDEDTIIDIITHRSNVQRQQIRQTFKSHFGRDLMTDLKSEISGDLARLILGLMMPPAHYDAKQLKKAMEGAGTDEKALIEILATRTNAEIRAINEAYKEDYHKSLEDALSSDTSGHFRRILISLATGHREEGGENLDQAREDAQVAAEILEIADTPSGDKTSLETRFMTILCTRSYPHLRRVFQEFIKMTNYDVEHTIKKEMSGDVRDAFVAIVQSVKNKPLFFADKLYKSMKGAGTDEKTLTRIMVSRSEIDLLNIRREFIEKYDKSLHQAIEGDTSGDFLKALLALCGGED | localized to the muscle membrane | increased | minimal | localized to the plasma membrane | presence of recombinant annexin A6-HIS at the sarcolemma | reduced | significantly reduced | reduced | reduction |  |  |  |  |  | 
annexin A6: annexin A6 with carboxyl-terminal turboGFP or tdTomato tag, expressed from plasmid electroporated into myofibers (protein, UniProt P14824 2-673, looked up, C-terminal turboGFP or tdTomato tag, annexin A6 with carboxyl-terminal turboGFP or tdTomato tag, expressed from plasmid electroporated into myofibers) Annexin A6: AKIAQGAMYRGSVHDFPEFDANQDAEALYTAMKGFGSDKESILELITSRSNKQRQEICQNYKSLYGKDLIEDLKYELTGKFERLIVNLMRPLAYCDAKEIKDAISGVGTDEKCLIEILASRTNEQMHQLVAAYKDAYERDLESDIIGDTSGHFQKMLVVLLQGTRENDDVVSEDLVQQDVQDLYEAGELKWGTDEAQFIYILGNRSKQHLRLVFDEYLKTTGKPIEASIRGELSGDFEKLMLAVVKCIRSTPEYFAERLFKAMKGLGTRDNTLIRIMVSRSELDMLDIREIFRTKYEKSLYSMIKNDTSGEYKKALLKLCGGDDDAAGQFFPEAAQVAYQMWELSAVSRVELKGTVCAANDFNPDADAKALRKAMKGIGTDEATIIDIVTHRSNAQRQQIRQTFKSHFGRDLMADLKSEISGDLARLILGLMMPPAHYDAKQLKKAMEGAGTDEKTLIEILATRTNAEIRAINEAYKEDYHKSLEDALSSDTSGHFRRILISLATGNREEGGENRDQAQEDAQVAAEILEIADTPSGDKTSLETRFMTVLCTRSYPHLRRVFQEFIKKTNYDIEHVIKKEMSGDVKDAFVAIVQSVKNKPLFFADKLYKSMKGAGTDEKTLTRVMVSRSEIDLLNIRREFIEKYDKSLHQAIEGDTSGDFMKALLALCGGED |  |  |  |  |  |  |  |  |  | Reduction; also recorded: significantly decreased | significantly larger | significantly more blebs | significant reduction | most significant reduction | significant reduction

— patent publication US20220143136A1, “USE OF ANNEXINS IN PREVENTING AND TREATING MUSCLE MEMBRANE INJURY” (NORTHWESTERN UNIVERSITY, priority 2018, published 2022)
